Experimental data from patent publication US20240189408A1, “COMPOSITIONS AND METHODS FOR REDUCING METHANE EMISSIONS IN RUMINANT POPULATIONS” (Arkea Bio Corp., priority 2022, published 2024).
“And” between values parts separate entries of the source, which are not always exact repeats. Equal entries are not always repeated.

Experiments:
[1] = LNP size and polydispersity by DLS (Malvern Panalytical); assay type: physicochemical; conditions: mRNA LNPs, Example 6
Description: (§1) To prepare lipid nanoparticles (LNPs), the mRNA stocks were thawed on ice. Nucleic acid concentrations were validated by absorbance at 260 nm using a NanoDrop. The mRNAs were then diluted to a final concentration of 0.35 mg/mL mRNA in Precision Nanosystem's dilution buffer. 10 mL of the dilute mRNAs were loaded into separate Luer lock syringes and all bubbles were removed by gentle tapping. A NanoAssemblr Ignite NxGen Cartridge was loaded into the cartridge slot of the Ignite instrument (FIG. 8A, 801) and one mRNA syringe was attached to the aqueous inlet of the cartridge. 3.3 mL of Genvoy-ILM reagent was loaded into a separate Luer lock syringes and all bubbles were removed by gentle tapping. The Genvoy-ILM syringe was then attached to the organic inlet of the cartridge. LNPs were then generated and collected into a 15 mL conical tube. The process was repeated for the remaining two mRNAs and for a buffer only LNP control (empty). Immediately after LNPs were generated, the samples were loaded into 10K dialysis cartridges, submerged into 1×DPBS (Ca^2+ and Mg^2+-free) to reduce the ethanol concentration to <0.5%. After dialysis the LNPs were recovered from the dialysis cartridges and sterile filtered at 0.2 um. Size and polydispersity (FIG. 8A, 802) were measured using a Malvern Panalytical DLS by diluting 40 uL of LNPs into 360 uL of 1×DPBS. […] Encapsulation efficiency was measured using a RiboGreen assay following Precision Nanosystems recommended protocol using a BioTek Synergy H1 Plate Reader. The resultant encapsulation efficiencies are shown in Table 14, with an average of ˜85%.
(§2) To prepare lipid nanoparticles (LNPs), the mRNA stocks were thawed on ice. Nucleic acid concentrations were validated by absorbance at 260 nm using a NanoDrop. The mRNAs were then diluted to a final concentration of 0.35 mg/mL mRNA in Precision Nanosystem's dilution buffer. 10 mL of the dilute mRNAs were loaded into separate Luer lock syringes and all bubbles were removed by gentle tapping. A NanoAssemblr Ignite NxGen Cartridge was loaded into the cartridge slot of the Ignite instrument and one mRNA syringe was attached to the aqueous inlet of the cartridge. 3.3 mL of Genvoy-ILM reagent was loaded into a separate Luer lock syringes and all bubbles were removed by gentle tapping. The Genvoy-LM syringe was then attached to the organic inlet of the cartridge. LNPs were then generated and collected into a 15 mL conical tube. The process was repeated for the remaining mRNAs and for a buffer only LNP control (empty). Immediately after LNPs were generated, the samples were loaded into 10K dialysis cartridges, submerged into Ix DPBS (Ca^2+ and Mg^2+-free) to reduce the ethanol concentration to <0.5%. After dialysis the LNPs were recovered from the dialysis cartridges and sterile filtered at 0.2 um. Size and polydispersity (FIG. 12 and FIG. 13) were measured using a Malvern Panalytical DLS by diluting 40 uL of LNPs into 360 uL of 1×DPBS. […] Encapsulation efficiency was measured using a RiboGreen assay following Precision Nanosystems recommended protocol using a BioTek Synergy H1 Plate Reader. The resultant encapsulation efficiencies are shown in Table 18, with an average of ˜60%.
(§3) To prepare lipid nanoparticles (LNPs), the mRNA stocks are thawed on ice. Nucleic acid concentrations are validated by absorbance at 260 nm using a NanoDrop. The mRNAs are then diluted to a final concentration of 0.35 mg/mL mRNA in Precision Nanosystem's dilution buffer. 10 mL of the dilute mRNAs are loaded into separate Luer lock syringes and all bubbles are removed by gentle tapping. A NanoAssemblr Ignite NxGen Cartridge is loaded into the cartridge slot of the Ignite instrument and one mRNA syringe is attached to the aqueous inlet of the cartridge. 3.3 mL of Genvoy-ILM reagent is loaded into a separate Luer lock syringes and all bubbles are removed by gentle tapping. The Genvoy-ILM syringe is then attached to the organic inlet of the cartridge. […]

ovalbumin (OVA) = test: OVA-specific IgG ELISA of sera after IM or SQ vaccination; assay type: in vivo, dairy cows; conditions: one line per animal replicate
Description: (§4) Bovine nucleic acid vaccination protocols (SQ and IM) were assessed in vivo in the dairy cows through the quantification of the adaptive immune response following inoculation with ovalbumin (OVA). Immune response was assessed by quantifying total IgG and OVA-specific IgG over a 28-day period after vaccination. Both SQ and IM vaccination provided a robust immune response, with IM vaccination providing a higher total immune response than SQ vaccination.
(§5) Dairy cows were dried off for a period of eight days prior to vaccination. Each vaccine formulation was administered either by IM or SQ injection to three animals. In total, 15 animals were vaccinated with LNPs containing mRNA and 6 animals were vaccinated with empty LNPs. Intramuscular injections were delivered into the cow's right neck muscle by veterinary-trained staff using an 18-gauge 1-1.5″ needle. Subcutaneous injections were delivered into the cow's right shoulder by veterinary-trained staff using an 18-gauge 0.5-0.75″ needle. Total blood samples (˜20 mL) were collected by veterinary-trained staff. Samples were collected into 10 mL vacutainer tubes (2×10 mL) from the coccygeal vein (tail vein) by needle puncture. Harvested blood samples were then processed via ultracentrifugation for serum collection. Isolated serum samples were aliquoted, labeled and stored in cryogenic tubes at −20° C. until use.
Sera samples were thawed on ice and total IgG was quantified using NovateinBio's Bovine OVA sIgG Antibody ELISA Kit (Cat No. BG-BVN11731) following the manufacturer's recommended protocol. Each of the animals vaccinated with a construct show a demonstrable OVA-specific IgG response over the 28-day test period.

total IgG = test: Total sera IgG by radial immunodiffusion after IM or SQ vaccination with OVA mRNA LNPs; assay type: in vivo, dairy cows; conditions: for Serum IgG Concentration: one line per animal replicate
Description: as §4, §5
Sera samples were thawed on ice and total IgG was quantified using Triple J Farms' Ig Radial Immunodiffusion (RID) kits (Cat No. 728411) following the manufacturers recommended protocol.

[2] = LNP encapsulation efficiency, RiboGreen assay; assay type: physicochemical; conditions: mRNA LNPs, Example 6
Description: as §1, §2, §3

B1: ARK011: mRNA: SP + Ova + TM/C, membrane-anchored OVA; SEQ ID NO: 16673 (nucleic acid)
chain: ATGTTCGTGTTCCTCGTGCTCCTGCCCCTCGTCTCCAGCCAGTGCGTGGGGTCCATAGGGGCTGCTTCTATGGAGTTCTGTTTTGATGTTTTCAAGGAACTGAAGGTTCACCATGCTAACGAGAACATCTTTTACTGTCCAATAGCCATCATGAGTGCGCTTGCTATGGTTTATTTGGGTGCAAAAGATTCTACTCGCACTCAGATTAATAAGGTCGTTAGATTCGACAAGCTTCCAGGGTTTGGAGACAGTATTGAGGCCCAATGTGGAACGTCAGTCAACGTCCATTCTTCTCTGCGGGACATTCTCAACCAAATAACGAAGCCAAACGACGTGTATTCCTTCTCACTCGCGTCACGGCTGTATGCTGAAGAAAGGTATCCTATCTTGCCAGAATATCTCCAGTGCGTCAAGGAGTTGTATCGAGGCGGACTGGAACCGATCAACTTTCAGACTGCAGCCGACCAGGCCCGCGAACTGATCAACAGCTGGGTCGAGTCTCAGACCAATGGGATCATACGCAATGTGTTGCAACCGAGTAGTGTCGACTCTCAGACGGCTATGGTCTTGGTGAACGCTATAGTCTTCAAAGGTCTGTGGGAGAAGACCTTCAAGGATGAAGACACACAAGCGATGCCATTCAGAGTCACCGAACAAGAAAGCAAACCCGTCCAAATGATGTACCAAATTGGGCTTTTTCGGGTGGCCTCTATGGCCTCTGAGAAAATGAAAATATTGGAACTGCCCTTCGCCAGCGGCACAATGAGTATGTTGGTCCTTCTTCCAGATGAAGTCTCAGGTCTCGAACAGCTTGAGTCTATCATTAACTTTGAGAAACTCACTGAATGGACTTCTTCCAATGTGATGGAAGAACGAAAAATCAAAGTCTACCTGCCCCGAATGAAGATGGAAGAGAAATATAATTTGACATCAGTTCTGATGGCCATGGGAATCACAGACGTGTTTTCATCCTCTGCGAATCTGTCTGGCATATCTTCCGCAGAATCTCTCAAGATCAGTCAAGCCGTCCACGCGGCCCATGCTGAGATAAATGAGGCGGGCAGAGAGGTGGTGGGGTCCGCCGAAGCTGGAGTCGACGCAGCTTCTGTCAGTGAAGAATTTAGGGCCGATCATCCTTTCCTGTTCTGCATAAAGCACATAGCTACGAACGCTGTGCTTTTCTTTGGCAGATGCGTTTCTCCACCCTGGTACATCTGGCTGGGCTTCATCGCAGGACTGATCGCCATCGTCATGGTCACCATAATGCTCTGTTGCATGACCTCCTGCTGTAGCTGCCTGAAAGGCTGTTGCAGCTGCGGGAGCTGCTGCAAATTCGACGAAGACGATAGCGAACCTGTGCTCAAAGGGGTGAAGTTGCATTACACATAGTGA
modifications: listed as DNA
In the case of B1, the PDI [1] is reported as 0.1665, the “Z-avg.” value [1] is reported as 97.79 nm·days and the “OVA-specific IgG, Absorbance (OD450)” value (ovalbumin (OVA); IM injection, Day 0, dairy cows) is reported as 0.327 OD450 and 0.591 OD450 and 1.937 OD450. For the same molecule, the “OVA-specific IgG, Absorbance (OD450)” value (ovalbumin (OVA); IM injection, Day 14, dairy cows) was 0.64 OD450 and 0.616 OD450 and 1.817 OD450, the “OVA-specific IgG, Absorbance (OD450)” value (ovalbumin (OVA); IM injection, Day 21, dairy cows) was 0.757 OD450 and 0.513 OD450 and 2.024 OD450 and the “OVA-specific IgG, Absorbance (OD450)” value (ovalbumin (OVA); IM injection, Day 28, dairy cows) was 0.626 OD450 and 0.603 OD450 and 1.663 OD450. The “OVA-specific IgG, Absorbance (OD450)” value (ovalbumin (OVA); SQ injection, Day 0, dairy cows) was 1.004 OD450 and 0.952 OD450 and 0.756 OD450, the “OVA-specific IgG, Absorbance (OD450)” value (ovalbumin (OVA); SQ injection, Day 14, dairy cows) was 1.16 OD450 and 0.955 OD450 and 1.085 OD450 and the “OVA-specific IgG, Absorbance (OD450)” value (ovalbumin (OVA); SQ injection, Day 21, dairy cows) was 1.036 OD450 and 0.7 OD450 and 1.063 OD450. The “OVA-specific IgG, Absorbance (OD450)” value (ovalbumin (OVA); SQ injection, Day 28, dairy cows) was 0.916 OD450 and 0.68 OD450 and 0.704 OD450, the “Serum IgG Concentration” value (total IgG; IM injection, Day 0, dairy cows, dose 348-468 ug) was 5,261 mg/dL and 5,203 mg/dL and 6,150 mg/dL and the “Serum IgG Concentration” value (total IgG; IM injection, Day 14, dairy cows, dose 348-468 ug) was 4,902 mg/dL and 5,664 mg/dL and 6,716 mg/dL. For the same molecule, the “Serum IgG Concentration” value (total IgG; IM injection, Day 28, dairy cows, dose 348-468 ug) was 3,702 mg/dL and 4,145 mg/dL and 3,794 mg/dL, the “Serum IgG Concentration” value (total IgG; SQ injection, Day 0, dairy cows, dose 353-468 ug) was 4,956 mg/dL and 5,599 mg/dL and 4,964 mg/dL and the “Serum IgG Concentration” value (total IgG; SQ injection, Day 14, dairy cows, dose 353-468 ug) was 4,815 mg/dL and 4,777 mg/dL and 6,139 mg/dL. For the same molecule, the “Serum IgG Concentration” value (total IgG; SQ injection, Day 21, dairy cows, dose 353-468 ug) was 5,722 mg/dL and 4,034 mg/dL and 7,379 mg/dL, the “Serum IgG Concentration” value (total IgG; SQ injection, Day 28, dairy cows, dose 353-468 ug) was 4,877 mg/dL and 4,344 mg/dL and 3,730 mg/dL and the “total sera IgG immune response, treated groups normalized against the empty groups” value (total IgG; dairy cows, 3 animals per construct, 28-day test period, FIG. 9) was “robust and prolonged immune response across all 3 animals”. For the same molecule, the Encapsulation efficiency [2] was 83%.
